The values that follow come from PMC7235987 (ACS Catalysis, 2020).

Common to all, as to experiment: SEC-MALS
Series [1] has as its target CdChdC variant H118A (Corynebacterium diphtheriae) (UniProt Q6NGV6).
In series [2] the target is CdChdC variant H118A/Y135A (Corynebacterium diphtheriae) (UniProt Q6NGV6).
Series [3] concerns the target CdChdC variant Y135A (Corynebacterium diphtheriae) (UniProt Q6NGV6).
Series [4] deals with the molecule itself.

Broadly, the stoichiometry N is a count of units in the complex or per binding partner. In turn, “CdChdC variant H118A (from UniProt Q6NGV6 1-234) (enzyme)” showed a stoichiometry N in series [1] of 5.
With “CdChdC variant H118A/Y135A (from UniProt Q6NGV6 1-234) (enzyme)”, the stoichiometry N in series [2] was found to be 5.
Consider “CdChdC variant Y135A (from UniProt Q6NGV6 1-234) (enzyme)”, for which the stoichiometry N in series [3] was 5.

B1: coproheme decarboxylase from Corynebacterium diphtheriae (CdChdC), wild-type (enzyme)
chain: MAEKLNFEELNSMQRYSQFAVFRAIPGALGSDRAEIVAQAQSFFDGLETAGKVEVRGIYDLAGCRAEADFMIWWIAEEFEEIQAAFARFRRETVLGQVSEVAWLGNSLHRPAEFNRSHLPSFIMGEIPGDWITVYPFVRSYDWYIMDPQKRRKILAEHGQAARDFPDVRANTVPAFALGDYEWMLAFEAPRLDRIVDLMHKMRYTEARLHVREETPFFTGRRVSEVSELVNVLP
For B1, the “stoichiometry N” value in series [4] was determined as 5.
